Results: US10053716B2, “4-amino cinnamic acid production method using enzyme” (JAPAN SCIENCE AND TECHNOLOGY AGENCY, priority 2014, dated 2018)

Experiments:
Type in all cases: biochemical
[1] = PAL activity of Escherichia coli recombinant enzyme crude extract; conditions: crude extract, NST37(DE) host, 20 mM phenylalanine
Protocol: (§1) [Measurement of Enzyme Activity of Escherichia coli Recombinant Enzyme Crude Extract]
(§2) Escherichia coli was inoculated into 5 ml of LB medium containing 100 mg/L ampicillin sodium or 100 mg/L kanamycin sulfate, and cultured overnight at 37° C. It was then inoculated into 200 ml of the same culture medium and cultured to an O.D. of 0.6, isopropyl-β-thiogalactopyranoside (IPTG) was added to a final concentration of 0.5 mM, and culturing was conducted for 12 hours at 28° C.
(§3) The cultured cells were collected and suspended in 20 mM potassium phosphate buffer (pH 7.5) and subjected to ultrasonic disruption and the supernatant was used as a crude extract for activity measurement. The enzyme activity was measured and quantified by measuring the absorbance at the absorption wavelength of the reaction product using a spectrophotometer, for a period of 5 minutes. For PAL activity, the crude extract was added to 100 mM Tris Buffer (pH 8.0) and 20 mM phenylalanine, reaction was conducted, and production of cinnamic acid was measured by the change in absorbance at a wavelength of 290 nm, while for 4APAL activity, 20 mM 4-aminophenylalanine was used as substrate and the absorbance at a wavelength of 315 nm due to 4-aminocinnamic acid was measured and quantified.

[2] = Km and kcat of recombinant purified enzyme for phenylalanine; conditions: purified His-tag enzyme
Protocol: (§4) [Measurement of Enzyme Activity of Escherichia coli Recombinant Purified Enzyme]
(§5) Escherichia coli was inoculated into 5 ml of LB medium containing 100 mg/L ampicillin sodium or 100 mg/L kanamycin sulfate, and cultured overnight at 37° C. It was then used to inoculate 200 ml of the same culture medium and cultured to an O.D of 0.6, IPTG was added to a final concentration of 0.5 mM, and the incubation was continued for 12 hours at 28° C. The rotational speed during cultures was 120 rpm. The cultured cells were collected and suspended in 20 mM potassium phosphate buffer (pH 7.5) and subjected to ultrasonic disruption, and after centrifugal separation, the supernatant was purified using a His-Trap column and the enzyme activity was measured. The method of measuring the enzyme activity was according to the method for the crude extract described above.
(§6) Since pET28AtPAL4 and its mutants and RgPAL were produced as fusion proteins with His-tag in the Escherichia coli of Example 3, these enzymes could be easily purified using an affinity column. After culturing the producing cells, the cells were collected, disrupted and purified. The purified enzymes were used to calculate the Km values and kcat values.

[3] = 4APAL activity of Escherichia coli recombinant enzyme crude extract; conditions: crude extract, NST37(DE) host, 20 mM 4-aminophenylalanine
Protocol: as §1, §2, §3

[4] = Km and kcat of recombinant purified enzyme for 4-aminophenylalanine; conditions: purified His-tag enzyme
Protocol: as §4, §5, §6

Question: For “AtPAL4: PAL derived from the plant Arabidopsis thaliana, amino acid sequence SEQ ID NO: 4”, which PAL activity [1] is on record?
Answer: 0.18 µmol/min/mg

Question: What about the “Kcat value, Phenylalanine” value [2] of the same substance?
Answer: 5.1 s⁻¹

Question: What about the 4APAL activity [3] of the same substance?
Answer: 0.012 µmol/min/mg

Question: And the “Kcat value, 4-Aminophenylalanine” value [4]?
Answer: >0.40 s⁻¹

Question: And the Km [4]?
Answer: > 40 mM
